Measurements taken from US20200048360A1 (TRACON PHARMACEUTICALS, published 2020).
Where two headings read alike, the source gives them in different places.

Key:
recombinant endoglin = target: T1, recombinant endoglin (UniProt P17813 26-586, limits assumed); test: BIAcore SPR, antibody captured on protein A chip, recombinant endoglin as analyte, 25 C
T1 sequence (looked up): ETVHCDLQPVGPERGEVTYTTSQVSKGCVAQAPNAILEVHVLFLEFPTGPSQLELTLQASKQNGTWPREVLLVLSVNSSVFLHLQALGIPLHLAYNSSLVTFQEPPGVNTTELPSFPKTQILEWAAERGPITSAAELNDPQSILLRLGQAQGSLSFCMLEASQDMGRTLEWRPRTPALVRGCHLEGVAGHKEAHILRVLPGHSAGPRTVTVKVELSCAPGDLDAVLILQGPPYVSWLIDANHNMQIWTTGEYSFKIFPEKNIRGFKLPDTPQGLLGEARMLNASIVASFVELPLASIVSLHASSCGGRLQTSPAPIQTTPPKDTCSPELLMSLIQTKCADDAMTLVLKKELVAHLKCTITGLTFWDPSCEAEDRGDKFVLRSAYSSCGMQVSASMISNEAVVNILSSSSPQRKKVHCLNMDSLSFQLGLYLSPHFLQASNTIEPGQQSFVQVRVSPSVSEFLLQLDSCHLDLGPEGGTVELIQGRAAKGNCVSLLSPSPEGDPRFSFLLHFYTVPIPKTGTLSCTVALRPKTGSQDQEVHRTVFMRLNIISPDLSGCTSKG
Method: Affinity of antibodies can be assessed using, for example, BIAcore analysis using standard protocols. Briefly, protein A is chemically coupled to a BIAcore CM5 chip, with the amount of protein A immobilized corresponding to ˜2000 R U. Subsequent steps are performed in a running buffer of 10 mM HEPES, 150 mM NaCl, 3 mM EDTA, 0.05% TWEEN, pH=7.4, at 25 degrees Celsius using a 10 Hz data collection rate. Anti-endoglin antibody (10 nM) is captured at a 10 μL/min flow rate by the immobilized protein A on the BIAcore chip: typically, capture times of 20, 40 and 80 seconds allow the capture of antibody densities corresponding to 130 RU, 330 RU and 570 RU, respectively. Start-up cycles are performed using running buffer at a flow rate of 40 μl/min, a contact time of 90 seconds and a dissociation time of 90 seconds. Sample cycles are performed using recombinant endoglin at concentrations ranging from 0 to 40 nM. Endoglin is passed over the BIAcore chip containing captured antibody at a flow rate of 40 μl/min with a contact time of 525 seconds and dissociation time of 2500 seconds. Eight sample cycles are typically performed at each antibody capture density Regeneration of the chip is accomplished using 10 mM glycine pH=1.7. Data analysis is performed using BIAcore T100 Evaluation Software v1.1 Signals generated using BIAcore chips with different captured antibody densities are compared and data generated in the absence of recombinant endoglin are used to adjust for the intraassay blank signal. For fitting of the data, the Rₘₐₓ is allowed to float to account for variation in capture levels of each antibody in each cycle. Data from each capture density is fitted simultaneously during analysis of each antibody. BIAcore data are presented in Table 2 for chimeric, humanized and humanized/deimmunized anti-endoglin antibodies, including kₐ (1/Ms), kd (1/s), KD (M) and […] (RU²).

[1] = target: T2, human CD105 (R&D Systems, Catalog No. 1097-EN) (human, UniProt P17813 26-586); test: ELISA with OD450 falling against test antibody concentration (competition format of paragraph 712: biotinylated chimeric anti-CD105 on captured human CD105; the legend says only 'binding assay data')
T2 construct: Captured on the plate by mouse anti-human CD105 (Southern Biotechnologies 9811-01); also called endoglin
T2 sequence (looked up): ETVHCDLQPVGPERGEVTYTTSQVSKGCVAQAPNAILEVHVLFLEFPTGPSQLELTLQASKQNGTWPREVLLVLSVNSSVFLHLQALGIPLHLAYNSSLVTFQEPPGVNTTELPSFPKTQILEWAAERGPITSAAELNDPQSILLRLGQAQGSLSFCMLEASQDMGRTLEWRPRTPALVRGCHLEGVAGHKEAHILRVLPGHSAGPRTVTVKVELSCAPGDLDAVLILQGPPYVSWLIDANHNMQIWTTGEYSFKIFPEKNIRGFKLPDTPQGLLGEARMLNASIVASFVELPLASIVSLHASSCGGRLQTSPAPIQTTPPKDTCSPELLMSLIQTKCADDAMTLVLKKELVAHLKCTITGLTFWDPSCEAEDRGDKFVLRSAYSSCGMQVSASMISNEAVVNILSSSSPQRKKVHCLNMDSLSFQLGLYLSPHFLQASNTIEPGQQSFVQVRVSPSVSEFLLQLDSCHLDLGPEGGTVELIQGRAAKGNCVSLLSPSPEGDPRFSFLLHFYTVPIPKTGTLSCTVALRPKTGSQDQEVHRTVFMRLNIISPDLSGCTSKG

[2] = target: T2, human CD105 (R&D Systems, Catalog No. …); test: as above; remark: listed apart in the source
[3] = target: T2, human CD105 (R&D Systems, Catalog No. …); test: as above; remark: listed apart in the source
[4] = target: T2, human CD105 (R&D Systems, Catalog No. …); test: as above; remark: listed apart in the source
[5] = target: T2, human CD105 (R&D Systems, Catalog No. …); test: as above; remark: listed apart in the source
[6] = target: T2, human CD105 (R&D Systems, Catalog No. …); test: as above; remark: listed apart in the source
[7] = target: T2, human CD105 (R&D Systems, Catalog No. …); test: as above; remark: listed apart in the source
[8] = target: T2, human CD105 (R&D Systems, Catalog No. …); test: as above; remark: listed apart in the source

Kd (recombinant endoglin): 0.6 nM
koff (recombinant endoglin): 3.28e-05 s⁻¹
kon (recombinant endoglin): 54700 M⁻¹ s⁻¹
IC50 (read off the curve) [1]: ~0.2 µg/mL
IC50 (read off the curve) [2]: ~0.2 µg/mL
IC50 (read off the curve) [3]: ~0.2 µg/mL
IC50 (read off the curve) [4]: ~0.2 µg/mL
IC50 (read off the curve) [5]: ~0.2 µg/mL
IC50 (read off the curve) [6]: ~0.2 µg/mL
IC50 (read off the curve) [7]: ~0.2 µg/mL
IC50 (read off the curve) [8]: ~0.2 µg/mL
B1: chimeric anti-CD105 antibody TRC105 (antibody, V domains shown)
VH: EVKLEESGGGLVQPGGSMKLSCAASGFTFSDAWMDWVRQSPEKGLEWVAEIRSKASNHATYYAESVKGRFTISRDDSKSSVYLQMNSLRAEDTGIYYCTRWRRFFDSWGQGTTLTVSS
VL: QIVLSQSPAILSASPGEKVTMTCRASSSVSYMHWYQQKPGSSPKPWIYATSNLASGVPVRFSGSGSGTSYSLTISRVEAEDAATYYCQQWSSNPLTFGAGTKLELK
notes: Chimeric monoclonal antibody with the murine SN6j variable regions; also called chimeric anti-endoglin antibody; c-SN6j
